# From paper PMC11062541
# Where two headings read alike, the source gives them in different places.
# Tests used:
# Experiment in all cases: EMSA
# [1] = system: T1, AbiEi (Streptococcus suis serotype 5 strain HN105), ORF:22a13f51
# T1 sequence: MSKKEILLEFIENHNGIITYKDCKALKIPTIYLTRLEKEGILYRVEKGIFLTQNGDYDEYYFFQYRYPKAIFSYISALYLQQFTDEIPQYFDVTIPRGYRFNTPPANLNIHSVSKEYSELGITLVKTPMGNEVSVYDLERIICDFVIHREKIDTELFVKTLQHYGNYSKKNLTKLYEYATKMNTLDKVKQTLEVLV
# [2] = system: T2, AbiEiDel-AHTH internal_change (Streptococcus suis serotype 5 strain HN105), ORF:22a13f51
# T2 sequence: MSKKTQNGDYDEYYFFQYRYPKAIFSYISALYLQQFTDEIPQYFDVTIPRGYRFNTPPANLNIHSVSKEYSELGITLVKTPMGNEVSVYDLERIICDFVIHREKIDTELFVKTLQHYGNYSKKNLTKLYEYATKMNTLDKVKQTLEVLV
# [3] = system: T3, SezA (Streptococcus suis serotype 5 strain HN105), ORF:21ec5bb3
# T3 sequence: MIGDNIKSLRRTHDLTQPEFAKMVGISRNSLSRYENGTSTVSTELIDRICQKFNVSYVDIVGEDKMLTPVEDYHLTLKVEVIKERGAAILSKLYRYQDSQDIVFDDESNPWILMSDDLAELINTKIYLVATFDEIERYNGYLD
# [4] = system: SezA (Streptococcus suis serotype 5 strain HN105)
# [5] = system: AbiEi (Streptococcus suis serotype 5 strain HN105)
substance,measurement,setting,value
ACTTACTCCTTCCTTTTACAATATTTGTAGTGCAAAAGCAACATTTTCTTTTACATTAATGTATTGTGATAACAAAATCAAGCCTTCTTTTTTATGATGAGAAAAGAGTGACAGTTTGTTGCTACAGAAAAAAGAAAAGAAGGACTATTTATGACCAAAACATGTAATCATCACTTTCT (double strand) [PAbiE-ΔIR1],binding,[1]; IR1 deleted,binds
AGAAAGTGATGATTACATGTTTTGGTCATAAATAGTCCTTCTTTTCTTTTTTCTGTAGCAACAAACTGTCACTCTTTTCTCATCATAAAAAAGAAGGCTTGATTTTGTTATCACAATACATTAATGTAAAAGAAAATGTTGCTTTTGCACTACAAATATTGTAAAATTGTAGTATAAAAGCAACATTGGAAGGAGTAAGT (double strand) [AbiE promoter],binding,[2],no binding
same,binding,[1],binds
same,binding,[3],no binding
AGAAAGTGATGATTACATGTTTTGGTCATAAATAGTCCTTCTTTTCTTTTTTCTGTAGCAACAAACTGTCACTCTTTTCTCATCATAAAAAAGAAGGCTTGATTTTGTTATCACAATACATTAATGTAAAAGAAATATTGTAAAAGGAAGGAGTAAGT (double strand) [PAbiE-ΔIR1/2],binding,[1]; IR1 and IR2 deleted,no binding
AGAAAGTGATGATTACATGTTTTGGTCATAAATAGTCCTTCTTTTCTTTTTTCTGTAGCAACAAACTGTCACTCTTTTCTCATCATAAAAAAGAAGGCTTGATTTTGTTATCACAATACATTAATGTAAAAGAAATATTGTAAAATTGTAGTATAAAAGCAACATTGGAAGGAGTAAGT (double strand) [PAbiE-ΔIR2],binding,[1]; IR2 deleted,binds
AGATAAAGACCTCCTCATATTTGCTTTCATTATACCATATATTAGGTTTCTTCGATTGCTTAAACTCCTCTATTCGCTTCTCCAACTGCTCAGTATTCAGTTTATTTTTCGCTTCTTGGATTGACTTATCAAGAATTTGTTCCTCATCGGTTATAATGTCCC (double strand) [PSezAT-ΔIR1/2],binding,[3]; IR1 and IR2 deleted,no binding
AGTACAGGACTGGATTCAATTTTATGCCAAAATTCCTGCCAAACTTCAAATTTATGAACTCAAACCCCTTGATACTGCACATTTAACAGGTTGTGCAATTGTTACTCTTAAATAATAGAGTTTCCAATCAAAATAAAAACCTATCACCTAATGTGGTAGGTTTTTTTTGTTCTATTGTTGCAAACGTTTTCGTTGTGGGGTATAATATAAAAAAT (double strand) [L sequence (attL)],Kd,[3],1960 nM
AGTACAGGACTGGATTCAATTTTATGCCAAAATTCCTGCCAAACTTCAAATTTATGAACTCAAACCCCTTGATACTGCACATTTAACAGGTTGTGCAATTTAGAGTTTCCAATCAAAATAAAAACCTATCACCTAATGTGGTAGGTTTTTTTTGTTCTATTGTTGCAAACGTTTTCGTTGTGGGGTATAATATAAAAAAT (double strand) [L-ΔattL],binding,[3]; attL deleted,no binding
CCTACTATCCTTTCAACATGATATTTGTCTGACAATGTAAGGCTGCCTCACATTGTCAGTACGCTTCCTAAAGACTTCACTCTCTCCTTGTTCGGTCTTTGCGAGCTCAGATATTGTGTCCACAATATCCCCAGTAGAAAATCAACACTTGATTTTTTTAGGAATGATATTAGGATAATAGAGGTGATTTGGAAAAGGTATCACAAAACAAAAAGTAGGATATTTCTAACCTACTTTTCATTTCCTTATA (double strand) [T sequence (oriT)],binding,[2],no binding
same,Kd,[1],153 nM
GGGACATTATAACCGATGAGGAACAAATTCTTGATAAGTCAATCCAAGAAGCGAAAAATAAACTGAATACTGAGCAGTTGGAGAAGCGAATAGAGGAGTTTAAGCAATCGAAGAAACCTAAAAACGGATAATGCACCAAATATGGTGCGTTATCCGTTTTTTATGGTATAATGAAAGCAAATATGAGGAGGTCTTTATCT (double strand) [SezAT promoter],binding,[1],binds
same,binding,[3],binds
L sequence (attL),Kd,[4],1960 nM
T sequence (oriT),Kd,[5],153 nM
TATAAGGAAATGAAAAGTAGGTTAGAAATATCCTACTTTTTGTTTTGTGATACCTTTTCCAAATCACCTCTATTATCCTAATATCATTCCTAAAAAAATCAAGTGTTGATTTTCTACTGCGAACAAGGAGAGAGTGAAGTCTTTAGGAAGCGTACTGACAATGTGAGGCAGCCTTACATTGTCAGACAAATATCATGTTGAAAGGATAGTAGG (double strand) [T-ΔoriT],binding,[1]; oriT deleted,no binding
